Reference: publication PMC5302815

Target: T1, FinR (Pseudomonas aeruginosa PAO1) (UniProt Q9HYK6)
T1 sequence: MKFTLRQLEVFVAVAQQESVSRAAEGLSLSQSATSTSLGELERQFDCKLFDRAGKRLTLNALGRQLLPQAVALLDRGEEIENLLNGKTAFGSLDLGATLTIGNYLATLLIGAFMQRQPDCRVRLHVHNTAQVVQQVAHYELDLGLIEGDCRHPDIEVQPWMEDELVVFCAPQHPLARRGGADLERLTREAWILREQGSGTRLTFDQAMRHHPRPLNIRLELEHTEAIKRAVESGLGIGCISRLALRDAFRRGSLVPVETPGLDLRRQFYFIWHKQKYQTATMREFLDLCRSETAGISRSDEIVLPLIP
Experiment: EMSA
Conditions: EMSA: 20 mM Tris-HCl pH 8.0, 50 mM KCl, 4 mM MgCl2, 0.5 mM EDTA, 0.02 mg/ml BSA, 5 mM DTT, 10% glycerol, 200 ng poly(dI-dC), 3 fmol probe in 25 ul, 25 C …

## AGACGCTCTCCTGCTGGGCCACGGCGACGAACACCTCGAGCTGGCGGAGGGTGAATTTCATCCAGGCTTCCTCGTCTAGAGCGAAAGGCCCCGCGACATTTTGCCGTTCCGTCGGCGGGGTTGGCTCGGTTATCCTTGCGCCCCGTCCGCGGGAGCGATGGGAGCCCTCGGCGGCCGGCGGCCGACCGATATCGTGTTATCCC (double strand) [EBI62-EBI69 fragment (without FinR site)]
  binding: no binding

## CGATATCGTGTTATCCCATATCCATATTCTGGATAAGCATTATCCAGACAATTCATTTTGCGGATATTTTGGCAACCGATAAAATGCCGCGCAACTGCGTCACGTCTGCTGCTGTTGGTGTGCGCCCGCGTTTTCCTAGGAGTCTTTGATGAGCAATCTGTACACCGAGCGCGTTCTCAGCGTGCACCACTGGAACGACACCCTGTTCAGCT (double strand) [EBI61-EBI70 fragment (with FinR site)]
  binding: binds
